US20200157519A1
Substitutions are numbered along the chain they refer to.

B1: phage-displayed 3D5 scFv (scFv)
scFv: DIQMTQSPSSLSASVGDRVTITCRASQDVSNNVAWYQQKPGKAPKLLIFWSPWLYSGVPSRFSGSGSGTDFTLTISSLQPEDFATYYCQQGWDSPVTFGQGTKVEIKRGGGGSGGGGSGGGGSEVQLVESGGGLVQPGGSLRLSCAASGFTISDFGIHWVRQAPGKGLEWVASIWPSGGYTYYADSVKGRFTISADTSKNTAYLQMNSLRAEDTAVYYCARSWFYSWYDYWGQGTLVTVSS
B2: scFv clone 7A3 (scFv, V domains shown)
VH: EVQLVESGGGLVQPGGSLRLSCAASGFTINDWSIHWVRQAPGKGLEWVAYIGPFWGSTFYADSVKGRFTISADTSKNTAYLQMNSLRAEDTAVYYCARGYFGFDYWGQGTLVTVSS
VL: DIQMTQSPSSLSASVGDRVTITCRASQDVGGWVAWYQQKPGKAPKLLISSPRSLYSGVPSRFSGSGSGTDFTLTISSLQPEDFATYYCQQYFSSPFTFGQGTKVEIKR
B3: scFv clone 8F2 (scFv, V domains shown)
VH: EVQLVESGGGLVQPGGSLRLSCAASGFTINNYGIHWVRQAPGKGLEWVAGIWPYWGYTYYADSVKGRFTISADTSKNTAYLQMNSLRAEDTAVYYCARFDSNSYSSYSDGFMDYWGQGTLVTVSS
VL: B2 VL with G30D, G31N, W32S, P51A, F92Y, S93N, S94Y, F96I
B4: scFv clone 3C2 (scFv, V domains shown)
VH: EVQLVESGGGLVQPGGSLRLSCAASGFTIGNSSIHWVRQAPGKGLEWVAGIWPYWGSTYYADSVKGRFTISADTSKNTAYLQMNSLRAEDTAVYYCARFGINNDGFMDYWGQGTLVTVSS
VL: B2 VL with G30S, P51T, R52G, F92Y, S93D, S94F, F96I

target: human fibrinogen (human) (UniProt P02671); test: single colony ELISA, secreted scFv on coated fibrinogen (negative control antigen), anti-E-tag-HRP
Sequence (P02671 20-629 limits assumed, chain 1 of 3): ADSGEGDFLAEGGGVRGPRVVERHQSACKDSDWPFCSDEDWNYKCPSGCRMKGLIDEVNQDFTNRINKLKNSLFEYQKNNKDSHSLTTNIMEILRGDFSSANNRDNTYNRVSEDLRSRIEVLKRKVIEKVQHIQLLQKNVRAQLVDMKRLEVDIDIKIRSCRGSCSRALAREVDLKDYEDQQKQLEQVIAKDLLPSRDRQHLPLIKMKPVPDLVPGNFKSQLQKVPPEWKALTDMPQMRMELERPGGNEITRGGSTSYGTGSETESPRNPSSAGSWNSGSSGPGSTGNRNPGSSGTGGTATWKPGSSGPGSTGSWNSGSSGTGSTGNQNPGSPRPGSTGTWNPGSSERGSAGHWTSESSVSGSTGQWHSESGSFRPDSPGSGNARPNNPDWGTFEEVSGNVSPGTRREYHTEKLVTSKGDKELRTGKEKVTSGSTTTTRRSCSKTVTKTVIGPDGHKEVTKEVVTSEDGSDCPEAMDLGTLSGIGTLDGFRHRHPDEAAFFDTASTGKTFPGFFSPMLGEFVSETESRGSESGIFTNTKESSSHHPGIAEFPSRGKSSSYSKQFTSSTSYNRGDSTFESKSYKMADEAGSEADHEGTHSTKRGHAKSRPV
Sequence (P02675 31-491 limits assumed, chain 2 of 3, further chain): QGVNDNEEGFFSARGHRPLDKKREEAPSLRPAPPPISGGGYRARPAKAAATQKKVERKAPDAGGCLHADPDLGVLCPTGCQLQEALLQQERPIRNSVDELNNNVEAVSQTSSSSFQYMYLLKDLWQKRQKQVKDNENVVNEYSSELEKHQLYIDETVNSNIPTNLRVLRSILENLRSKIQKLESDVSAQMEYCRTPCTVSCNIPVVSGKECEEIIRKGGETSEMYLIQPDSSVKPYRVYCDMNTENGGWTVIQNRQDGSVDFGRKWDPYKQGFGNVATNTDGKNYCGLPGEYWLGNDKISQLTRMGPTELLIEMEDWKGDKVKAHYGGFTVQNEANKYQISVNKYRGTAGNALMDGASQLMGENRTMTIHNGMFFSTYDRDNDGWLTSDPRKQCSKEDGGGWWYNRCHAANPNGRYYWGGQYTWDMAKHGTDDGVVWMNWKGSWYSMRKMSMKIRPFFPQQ
Sequence (P02679 other isoform, or with tags, fused parts or gaps limits assumed, chain 3 of 3, further chain): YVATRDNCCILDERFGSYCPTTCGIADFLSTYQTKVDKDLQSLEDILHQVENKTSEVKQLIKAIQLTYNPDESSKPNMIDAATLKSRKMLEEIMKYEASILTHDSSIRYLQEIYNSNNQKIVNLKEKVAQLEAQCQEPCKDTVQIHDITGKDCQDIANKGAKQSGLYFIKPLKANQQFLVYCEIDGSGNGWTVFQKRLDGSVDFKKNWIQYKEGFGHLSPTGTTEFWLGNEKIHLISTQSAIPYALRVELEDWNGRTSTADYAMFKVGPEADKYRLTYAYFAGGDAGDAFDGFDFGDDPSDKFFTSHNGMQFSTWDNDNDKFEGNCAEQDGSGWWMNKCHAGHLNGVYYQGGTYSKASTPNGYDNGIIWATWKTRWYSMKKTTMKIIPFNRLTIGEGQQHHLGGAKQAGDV

| Binder | OD450 Fibrinogen [OD450] |
| --- | --- |
| B1 | 0.0022 |
| B2 | 0.0209 |
| B3 | 0.0366 |
| B4 | 0.0117 |
